Results taken from patent US20140134169A1, “Methods of Treating Ovarian Cancer with Dll4 Antagonists” (Regeneron Pharmaceuticals, Inc., priority 2012, published 2014).

What was measured:
SKOV-3 cells = assay: SKOV-3 ovarian xenograft (subcutaneous) tumor growth inhibition; type: in vivo, human; conditions: Humanized Dll4 SCID mice; REGN421 2.5 mg/kg once weekly; 2.5 mg/kg
Procedure: Ovarian tumor xenograft cells were implanted into humanized Dll4 SCID mice or vendor SCID mice (i.e., SCID mice expressing native murine Dll4). After implantation, mice were treated with REGN421 (anti-human Dll4 antibody, binds to human Dll4), mDll4Ab1 (anti-murine Dll4 antibody, binds to murine Dll4), or a human Fc domain control protein. In one study, mice were treated with VEGF-Trap, mDll4Ab1 or VEGF-Trap plus mDll4Ab1. TOV-112D cells (5×10^6) were implanted subcutaneously into the right flank of humanized Dll4 (n=4) or vendor SCID mice (n=7). Treatment with REGN421 (2.5 mg/kg, 1×/week) or mDll4Ab1 (5 mg/kg, 1×/week) vs. hFc control was initiated one week after tumor cell implantation. Animals were treated for 2 to 3 weeks. A2780 cells (2×10^6) were implanted intraperitoneally into humanized Dll4 or vendor SCID mice (n=4-5). Treatment with REGN421 (2.5 mg/kg, 1×/week) or mDll4Ab1 (5 mg/kg, 1×/week) vs. hFc control was initiated one week after tumor cell implantation. For the A2780 combination study, simultaneous treatment with mDll4Ab1 (5 mg/kg, 1×/week) and VEGF-Trap (10 mg/kg, 2×/week) was initiated one week after tumor cell implantation. A VEGF-Trap single treatment arm was included in this study. Animals bearing A2780 tumors were treated for 4-5 weeks. […] Tumor growth inhibition (TGI) was measured as detailed above.

TOV-112D cells = assay: TOV-112D ovarian xenograft (subcutaneous) tumor growth inhibition; type: in vivo, human
Procedure: Ovarian tumor xenograft cells were implanted into humanized Dll4 SCID mice or vendor SCID mice (i.e., SCID mice expressing native murine Dll4). After implantation, mice were treated with REGN421 (anti-human Dll4 antibody, binds to human Dll4), mDll4Ab1 (anti-murine Dll4 antibody, binds to murine Dll4), or a human Fc domain control protein. In one study, mice were treated with VEGF-Trap, mDll4Ab1 or VEGF-Trap plus mDll4Ab1. TOV-112D cells (5×10^6) were implanted subcutaneously into the right flank of humanized Dll4 (n=4) or vendor SCID mice (n=7). Treatment with REGN421 (2.5 mg/kg, 1×/week) or mDll4Ab1 (5 mg/kg, 1×/week) vs. hFc control was initiated one week after tumor cell implantation. Animals were treated for 2 to 3 weeks. A2780 cells (2×10^6) were implanted intraperitoneally into humanized Dll4 or vendor SCID mice (n=4-5). Treatment with REGN421 (2.5 mg/kg, 1×/week) or mDll4Ab1 (5 mg/kg, 1×/week) vs. hFc control was initiated one week after tumor cell implantation. For the A2780 combination study, simultaneous treatment with mDll4Ab1 (5 mg/kg, 1×/week) and VEGF-Trap (10 mg/kg, 2×/week) was initiated one week after tumor cell implantation. A VEGF-Trap single treatment arm was included in this study. Animals bearing A2780 tumors were treated for 4-5 weeks. SKOV-3 cells (5×10^6) in matrigel were implanted subcutaneously and tumor-bearing animals (n=10) were dosed with REGN421 (2.5 mg/kg) and mDll4Ab1 (5 mg/kg) once weekly. OVCAR-3 cells (1×10^7) were implanted subcutaneously into the right flank of vendor SCID mice (n=7). Treatment with mDll4Ab1 (5 mg/kg 1×/week) vs. hFc control was initiated 66 days after tumor cell implantation. Animals were treated for a total of 5 weeks. Tumor growth inhibition (TGI) was measured as detailed above.

[1] = tested on: human HCT116 tumor cells (CRC); assay: Growth of human HCT116 tumors in humanized Dll4 SCID mice (5-FU study); type: in vivo; conditions: REGN421 2 mg/kg sc (6 mg/kg total)
Procedure: Each mouse was implanted subcutaneously (sc) with 5×10^6 human HCT116 tumor cells (CRC). […] The mice were then treated with hFc, REGN421, 5-FU or combination of REGN421 and 5-FU. A total of 30 mice were divided into 6 groups (n=5 per cohort). The first group was treated sc with hFc at 2 mg/kg; the second group was treated sc with REGN421 at 2 mg/kg; the third and fourth groups were treated ip with 5-FU at 15 and 25 mg/kg, respectively; the fifth group was treated sc with REGN421 at 2 mg/kg and ip with 5-FU at 15 mg/kg; and the sixth group was treated sc with REGN421 at 2 mg/kg and ip with 5-FU at 25 mg/kg. REGN421 was administered every 3-4 days starting on day 22 and mice received three doses total. 5-FU was administered every 3-4 days starting on day 22 and mice received three doses total.
To assess the effects of REGN421 and 5-FU as single agents or in combination, the changes in tumor size (volume) were measured, beginning three days before the initial REGN421 treatment, and then on the day of each agent treatment (days 22, 26, 29) and thereafter every 3-4 days until tumors reach ˜600 mm^3 in size. In vivo tumor size is calculated using the formula (length×width^2)/2 (FIG. 3 and Table 5).

B1: REGN421 (antibody, V domains shown)
VH: QVQLVESGGGVVQPGRSLRLSCAASGFTFSSYGMHWVRQAPGKGLEWVSFLWYDGTNKNYVESVKGRFTISRDNSKNMLYLEMNSLRAEDTAVYYCARDHDFRSGYEGWFDPWGQGTLVTVSS
VL: EIVLTQSPATLSLSPGERATLSCRASQSVSSYLAWYQQKPGQAPRLLIYDASNRATGIPARFSGSGSGTDFTLTISSLEPEDFAVYYCQHRSNWPPTFGGGTKVEIK
With B1 the “% TGI” value (SKOV-3 cells) was 61%, the “% TGI” value (TOV-112D cells; Humanized Dll4 SCID mice, REGN421 2.5 mg/kg 1x/week) was 86% and the “% TGI” value (TOV-112D cells; SCID mice (native murine Dll4), REGN421 2.5 mg/kg or mDll4Ab1 5 mg/kg 1x/week) was 0%. The “anti-tumor activity (in words)” value (TOV-112D cells; vendor SCID mice) was “did not exhibit any appreciable anti-tumor activity”, the “TGD” value [1] was 6 days and the “TGI(%) at Day 39” value [1] was 36.3%.
